{"source": "patent US11365402B2", "about": "“Internal protein tags” (Promega Corporation, priority 2014, dated 2022)", "molecules": {"B1": {"name": "ATG-1915: Control Target with a terminal Small Bit: HALOTAG-VEGFA-165 with C-terminal NLpep114 tag (SEQ ID NO: 2577) (protein)", "chain": "MNSFSTSAFGPVAFSLGLLLVLPAAFPAPRAEIGTGFPFDPHYVEVLGERMHYVDVGPRDGTPVLFLHGNPTSSYVWRNIIPHVAPTHRCIAPDLIGMGKSDKPDLGYFFDDHVRFMDAFIEALGLEEVVLVIHDWGSALGFHWAKRNPERVKGIAFMEFIRPIPTWDEWPEFARETFQAFRTTDVGRKLIIDQNVFIEGTLPMGVVRPLTEVEMDHYREPFLNPVDREPLWRFPNELPIAGEPANIVALVEEYMDWLHQSPVPKLLFWGTPGVLIPPAEAARLAKSLPNCKAVDIGPGLNLLQEDNPDLIGSEIARWLSTLEISGEPTTEDLYFQSDNAPMAEGGGQNHHEVVKFMDVYQRSYCHPIETLVDIFQEYPDEIEYIFKPSCVPLMRCGGCCNDEGLECVPTEESNITMQIMRIKPHQGQHIGEMSFLQHNKCECRPKKDRARQENPCGPCSERRKHLFVQDPQTCKCSCKNTDSRCKARQLELNERTCRCDKPRRGSSGVTGYRLFEEIL"}, "B2": {"name": "ATG-1917: Experimental Target with the Small Bit (NLpep114) between two large domains (SEQ ID NO: 2578) (protein)", "chain": "MNSFSTSAFGPVAFSLGLLLVLPAAFPAPRAEIGTGFPFDPHYVEVLGERMHYVDVGPRDGTPVLFLHGNPTSSYVWRNIIPHVAPTHRCIAPDLIGMGKSDKPDLGYFFDDHVRFMDAFIEALGLEEVVLVIHDWGSALGFHWAKRNPERVKGIAFMEFIRPIPTWDEWPEFARETFQAFRTTDVGRKLIIDQNVFIEGTLPMGVVRPLTEVEMDHYREPFLNPVDREPLWRFPNELPIAGEPANIVALVEEYMDWLHQSPVPKLLFWGTPGVLIPPAEAARLAKSLPNCKAVDIGPGLNLLQEDNPDLIGSEIARWLSTLEISGEPTTEDLYFQSDNVTGYRLFEEILGSSGAPMAEGGGQNHHEVVKFMDVYQRSYCHPIETLVDIFQEYPDEIEYIFKPSCVPLMRCGGCCNDEGLECVPTEESNITMQIMRIKPHQGQHIGEMSFLQHNKCECRPKKDRARQENPCGPCSERRKHLFVQDPQTCKCSCKNTDSRCKARQLELNERTCRCDKPRR"}, "B3": {"name": "ATG-1946: Experimental Target with the Small Bit between one large and one small domain (C-terminal FLAG) (SEQ ID NO: 2579) (protein)", "chain": "MNSFSTSAFGPVAFSLGLLLVLPAAFPAPRAEIGTGFPFDPHYVEVLGERMHYVDVGPRDGTPVLFLHGNPTSSYVWRNIIPHVAPTHRCIAPDLIGMGKSDKPDLGYFFDDHVRFMDAFIEALGLEEVVLVIHDWGSALGFHWAKRNPERVKGIAFMEFIRPIPTWDEWPEFARETFQAFRTTDVGRKLIIDQNVFIEGTLPMGVVRPLTEVEMDHYREPFLNPVDREPLWRFPNELPIAGEPANIVALVEEYMDWLHQSPVPKLLFWGTPGVLIPPAEAARLAKSLPNCKAVDIGPGLNLLQEDNPDLIGSEIARWLSTLEISGEPTTEDLYFQSDNAPMAEGGGQNHHEVVKFMDVYQRSYCHPIETLVDIFQEYPDEIEYIFKPSCVPLMRCGGCCNDEGLECVPTEESNITMQIMRIKPHQGQHIGEMSFLQHNKCECRPKKDRARQENPCGPCSERRKHLFVQDPQTCKCSCKNTDSRCKARQLELNERTCRCDKPRRGSSGVTGYRLFEEILGSDYKDDDDK"}}, "system": "Anti-VEGF antibody", "test": "Target antibody driven NANOLUC bioluminescence complementation (NLpep114-VEGFA targets, NLpoly11S-protein G, anti-VEGF antibody)", "assay_type": "cell-based", "conditions": "HEK293T cells", "text": "FIG. 6 depicts a schematic of how the assay components are used to screen for antibody binding to target protein by way of antibody driven NANOLUC bioluminescence complementation between NLpoly11S-fused protein G and internally tagged NLpep114 target protein. The Target, containing an internal pep114 tag, is expressed in mammalian cell culture with an IL6 signal peptide (SP). The SP directs the Target to the secretion pathway. The Target can be assayed in the media (+/−) cells. In the example, a purified preparation of the Large Bit (11S-protein G fusion protein) and Test Antibody are added directly to the mammalian cell culture. The protein G domain of the Large Bit binds to the Fc region of the Test Antibody between the Heavy Chain Constant Domains 2 and 3. If the Test Antibody binds to the Target, the Large and Small Bits can come together to form an active luminesent complex that is detected by furimazine.\nNLpep114-target fusion construct DNA was diluted into carrier DNA (pGEM3Zf(−); Promega) at bug total DNA at a mass ratio of 1:10. DNA:FuGENE complexes were formed at a ratio of 1:3 (ug DNA/ul FuGENE), according to manufacturer's protocol (Promega). One part of the transfection complex was mixed with 20 parts (volume/volume) of HEK293T cells (ATCC) suspended at a density of 2×10^5 cells/ml in DMEM (Gibco)+10% FBS (Hyclone). Cells (50 ul/well) were dispensed into 96-well tissue culture plates and incubated in a humidified, 37° C./5% CO2 incubator for 18-24 hours.\nHEK293T cells (ATCC) were transfected with three NLpep114-VEGFA DNAs as described above and incubated overnight. The cells were serum starved for 4 hours under the same conditions by replacing the media with an equal volume of (Gibco). NLpoly11S(15)pG in 1×PBS/0.1% BSA (Promega) was added (25 ul/well) to a final concentration of 0.5 ug/ml (12 nM). Anti-VEGF antibody (R&D Systems, #293) in 1×PBS/0.1% BSA (Promega) was added (25 ul/well) to a final concentration of 0-0.73 ug/ml (0-5.3 nM). After the addition of LCS Reagent (Promega, 100 ul/well, 10 μM final concentration), luciferase activity was measured using an Infinity F500 microtiter plate reader (Tecan)."}
{"molecule": "B1", "values": [{"measurement": "overall luminescence signal, compared among constructs", "setting": "anti-VEGF antibody", "value": "highest signal"}, {"measurement": "signal over background (increase in bioluminescence with antibody over assay components without antibody)", "setting": "anti-VEGF antibody 0-0.73 ug/ml (0-5.3 nM), NLpoly11S-protein G 0.5 ug/ml (12 nM)", "value": "over 400 fold"}]}
{"molecule": "B2", "values": [{"measurement": "signal reduction relative to ATG-1915 (C-terminal NLpep114 tag)", "setting": "anti-VEGF antibody", "value": 5, "unit": "fold"}]}
{"molecule": "B3", "values": [{"measurement": "signal loss relative to ATG-1915 (C-terminal NLpep114 tag)", "setting": "anti-VEGF antibody", "value": 40, "unit": "%"}]}
